From ChEMBL document CHEMBL1212771, “BEL-2, an extended-spectrum beta-lactamase with increased activity toward expanded-spectrum cephalosporins in Pseudomonas aeruginosa” (Antimicrob Agents Chemother, 2010)
Positions count from the first letter of the chain named. Converted amounts (≈) assume the structure as drawn.

What was measured:
Pseudomonas aeruginosa [1] = assay: Antimicrobial activity against Pseudomonas aeruginosa 531 expressing beta-lactamase BEL-2 by solid agar dilution method; assay type: functional
Pseudomonas aeruginosa [2] = assay: Antimicrobial activity against Pseudomonas aeruginosa 51170 expressing beta-lactamase BEL-1 by solid agar dilution method; assay type: functional
Escherichia coli [3] = assay: Antimicrobial activity against Escherichia coli TOP10 expressing recombinant beta-lactamase BEL-2 by solid agar dilution method; assay type: functional
Escherichia coli [4] = assay: Antimicrobial activity against Escherichia coli TOP10 expressing recombinant beta-lactamase BEL-1 by solid agar dilution method; assay type: functional
Escherichia coli [5] = assay: Antimicrobial activity against Escherichia coli TOP10 by solid agar dilution method; assay type: functional
Pseudomonas aeruginosa [6] = assay: Ratio of Km for Pseudomonas aeruginosa 51170 beta-lactamase BEL-1 to Km for Pseudomonas aeruginosa 531 beta-lactamase BEL-2
[7] = substrate: CC(=O)OCC1=C(C(=O)O)N2C(=O)[C@@H](NC(=O)Cc3cccs3)[C@H]2SC1; assay: (§1) Activity at Pseudomonas aeruginosa 531 beta-lactamase BEL-2
[8] = substrate: CC(C)(O/N=C(\C(=O)N[C@@H]1C(=O)N2C(C(=O)[O-])=C(C[n+]3ccccc3)CS[C@H]12)c1csc(N)n1)C(=O)O; assay: as §1
[9] = substrate: CC1(C)S[C@@H]2[C@H](NC(=O)Cc3ccccc3)C(=O)N2[C@H]1C(=O)O; assay: as §1
[10] = substrate: CCN1CCN(C(=O)N[C@@H](C(=O)N[C@@H]2C(=O)N3[C@@H]2SC(C)(C)[C@@H]3C(=O)O)c2ccccc2)C(=O)C1=O; assay: as §1
[11] = substrate: CO/N=C(\C(=O)N[C@@H]1C(=O)N2C(C(=O)O)=C(COC(C)=O)CS[C@H]12)c1csc(N)n1; assay: as §1
[12] = substrate: CO/N=C(\C(=O)N[C@@H]1C(=O)N2C(C(=O)O)=C(COC(N)=O)CS[C@H]12)c1ccco1; assay: as §1
[13] = substrate: CO/N=C(\C(=O)N[C@@H]1C(=O)N2C(C(=O)[O-])=C(C[N+]3(C)CCCC3)CS[C@H]12)c1csc(N)n1; assay: as §1
[14] = substrate: CO[C@@]1(NC(=O)Cc2cccs2)C(=O)N2C(C(=O)O)=C(COC(N)=O)CS[C@@H]21; assay: as §1
[15] = substrate: C[C@@H](O)[C@H]1C(=O)N2C(C(=O)O)=C(SCCNC=N)C[C@H]12; assay: as §1
[16] = substrate: C[C@H]1[C@H](NC(=O)/C(=N\OC(C)(C)C(=O)O)c2csc(N)n2)C(=O)N1S(=O)(=O)O; assay: as §1
[17] = substrate: O=C(Cc1cccs1)N[C@@H]1C(=O)N2C(C(=O)[O-])=C(C[n+]3ccccc3)CS[C@H]12; assay: as §1
[18] = substrate: CC(=O)OCC1=C(C(=O)O)N2C(=O)[C@@H](NC(=O)Cc3cccs3)[C@H]2SC1; assay: (§2) Ratio of Kcat to Km for Pseudomonas aeruginosa 531 beta-lactamase BEL-2
[19] = substrate: CC(C)(O/N=C(\C(=O)N[C@@H]1C(=O)N2C(C(=O)[O-])=C(C[n+]3ccccc3)CS[C@H]12)c1csc(N)n1)C(=O)O; assay: as §2
[20] = substrate: CC1(C)S[C@@H]2[C@H](NC(=O)Cc3ccccc3)C(=O)N2[C@H]1C(=O)O; assay: as §2
[21] = substrate: CCN1CCN(C(=O)N[C@@H](C(=O)N[C@@H]2C(=O)N3[C@@H]2SC(C)(C)[C@@H]3C(=O)O)c2ccccc2)C(=O)C1=O; assay: as §2
[22] = substrate: CO/N=C(\C(=O)N[C@@H]1C(=O)N2C(C(=O)O)=C(COC(C)=O)CS[C@H]12)c1csc(N)n1; assay: as §2
[23] = substrate: CO/N=C(\C(=O)N[C@@H]1C(=O)N2C(C(=O)O)=C(COC(N)=O)CS[C@H]12)c1ccco1; assay: as §2
[24] = substrate: CO/N=C(\C(=O)N[C@@H]1C(=O)N2C(C(=O)[O-])=C(C[N+]3(C)CCCC3)CS[C@H]12)c1csc(N)n1; assay: as §2
[25] = substrate: C[C@H]1[C@H](NC(=O)/C(=N\OC(C)(C)C(=O)O)c2csc(N)n2)C(=O)N1S(=O)(=O)O; assay: as §2
[26] = substrate: O=C(Cc1cccs1)N[C@@H]1C(=O)N2C(C(=O)[O-])=C(C[n+]3ccccc3)CS[C@H]12; assay: as §2
[27] = substrate: CC(=O)OCC1=C(C(=O)O)N2C(=O)[C@@H](NC(=O)Cc3cccs3)[C@H]2SC1; assay: (§3) Activity at Pseudomonas aeruginosa 51170 beta-lactamase BEL-1
[28] = substrate: CC(C)(O/N=C(\C(=O)N[C@@H]1C(=O)N2C(C(=O)[O-])=C(C[n+]3ccccc3)CS[C@H]12)c1csc(N)n1)C(=O)O; assay: as §3
[29] = substrate: CC1(C)S[C@@H]2[C@H](NC(=O)Cc3ccccc3)C(=O)N2[C@H]1C(=O)O; assay: as §3
[30] = substrate: CCN1CCN(C(=O)N[C@@H](C(=O)N[C@@H]2C(=O)N3[C@@H]2SC(C)(C)[C@@H]3C(=O)O)c2ccccc2)C(=O)C1=O; assay: as §3
[31] = substrate: CO/N=C(\C(=O)N[C@@H]1C(=O)N2C(C(=O)O)=C(COC(C)=O)CS[C@H]12)c1csc(N)n1; assay: as §3
[32] = substrate: CO/N=C(\C(=O)N[C@@H]1C(=O)N2C(C(=O)O)=C(COC(N)=O)CS[C@H]12)c1ccco1; assay: as §3
[33] = substrate: CO/N=C(\C(=O)N[C@@H]1C(=O)N2C(C(=O)[O-])=C(C[N+]3(C)CCCC3)CS[C@H]12)c1csc(N)n1; assay: as §3
[34] = substrate: CO[C@@]1(NC(=O)Cc2cccs2)C(=O)N2C(C(=O)O)=C(COC(N)=O)CS[C@@H]21; assay: as §3
[35] = substrate: C[C@@H](O)[C@H]1C(=O)N2C(C(=O)O)=C(SCCNC=N)C[C@H]12; assay: as §3
[36] = substrate: C[C@H]1[C@H](NC(=O)/C(=N\OC(C)(C)C(=O)O)c2csc(N)n2)C(=O)N1S(=O)(=O)O; assay: as §3
[37] = substrate: O=C(Cc1cccs1)N[C@@H]1C(=O)N2C(C(=O)[O-])=C(C[n+]3ccccc3)CS[C@H]12; assay: as §3
[38] = substrate: CC(=O)OCC1=C(C(=O)O)N2C(=O)[C@@H](NC(=O)Cc3cccs3)[C@H]2SC1; assay: (§4) Ratio of Kcat to Km for Pseudomonas aeruginosa 51170 beta-lactamase BEL-1
[39] = substrate: CC1(C)S[C@@H]2[C@H](NC(=O)Cc3ccccc3)C(=O)N2[C@H]1C(=O)O; assay: as §4
[40] = substrate: CCN1CCN(C(=O)N[C@@H](C(=O)N[C@@H]2C(=O)N3[C@@H]2SC(C)(C)[C@@H]3C(=O)O)c2ccccc2)C(=O)C1=O; assay: as §4
[41] = substrate: CO/N=C(\C(=O)N[C@@H]1C(=O)N2C(C(=O)O)=C(COC(C)=O)CS[C@H]12)c1csc(N)n1; assay: as §4
[42] = substrate: CO/N=C(\C(=O)N[C@@H]1C(=O)N2C(C(=O)O)=C(COC(N)=O)CS[C@H]12)c1ccco1; assay: as §4
[43] = substrate: CO/N=C(\C(=O)N[C@@H]1C(=O)N2C(C(=O)[O-])=C(C[N+]3(C)CCCC3)CS[C@H]12)c1csc(N)n1; assay: as §4
[44] = substrate: C[C@H]1[C@H](NC(=O)/C(=N\OC(C)(C)C(=O)O)c2csc(N)n2)C(=O)N1S(=O)(=O)O; assay: as §4
[45] = substrate: O=C(Cc1cccs1)N[C@@H]1C(=O)N2C(C(=O)[O-])=C(C[n+]3ccccc3)CS[C@H]12; assay: as §4

`C[C@H]1[C@H](NC(=O)/C(=N\OC(C)(C)C(=O)O)c2csc(N)n2)C(=O)N1S(=O)(=O)O` [AZTREONAM] showed an MIC (Pseudomonas aeruginosa [1]) of 64 µg/mL (≈ 147 µM), an MIC (Pseudomonas aeruginosa [2]) of 16 µg/mL (≈ 36.7 µM) and an MIC (Escherichia coli [3]) of 16 µg/mL. The MIC (Escherichia coli [4]) was 16 µg/mL.

In the case of `CC(=O)OCC1=C(C(=O)O)N2C(=O)[C@@H](NC(=O)Cc3cccs3)[C@H]2SC1` [CEPHALOTHIN], the MIC (Pseudomonas aeruginosa [1]) is reported as > 512 µg/mL, the MIC (Pseudomonas aeruginosa [2]) is reported as > 512 µg/mL and the MIC (Escherichia coli [3]) is reported as 256 µg/mL. For the same molecule, the MIC (Escherichia coli [4]) was 256 µg/mL and the MIC (Escherichia coli [5]) was 2 µg/mL (≈ 5.04 µM).

`CCN1CCN(C(=O)N[C@@H](C(=O)N[C@@H]2C(=O)N3[C@@H]2SC(C)(C)[C@@H]3C(=O)O)c2ccccc2)C(=O)C1=O` [PIPERACILLIN] gave an MIC (Pseudomonas aeruginosa [1]) of 16 µg/mL (≈ 30.9 µM), an MIC (Pseudomonas aeruginosa [2]) of 16 µg/mL (≈ 30.9 µM) and an MIC (Escherichia coli [3]) of 32 µg/mL. The MIC (Escherichia coli [4]) was 128 µg/mL and the MIC (Escherichia coli [5]) was 1 µg/mL (≈ 1.93 µM).

`C[C@@H](O)[C@H]1C(=O)N2C(C(=O)O)=C(SCCNC=N)C[C@H]12` [IMIPENEM ANHYDROUS] gave an MIC (Pseudomonas aeruginosa [1]) of 1 µg/mL (≈ 3.34 µM).

Work on `CC(C)(O/N=C(\C(=O)N[C@@H]1C(=O)N2C(C(=O)[O-])=C(C[n+]3ccccc3)CS[C@H]12)c1csc(N)n1)C(=O)O` [CEFTAZIDIME] yielded an MIC (Pseudomonas aeruginosa [1]) of 256 µg/mL (≈ 468 µM), an MIC (Pseudomonas aeruginosa [2]) of 32 µg/mL (≈ 58.5 µM) and an MIC (Escherichia coli [3]) of 128 µg/mL. For the same molecule, the MIC (Escherichia coli [4]) was 16 µg/mL, the MIC (Escherichia coli [5]) was 0.06 µg/mL (≈ 0.11 µM) and the Ratio (Pseudomonas aeruginosa [6]) was < 3.

B1: Beta-lactamase (Pseudomonas aeruginosa), D2SSQ3 (protein)
chain: MKLLLYPLLLFLVIPAFAQADFEHAISDLEAHNQAKIGVALVSENGNLIQGYRANERFAMCSTFKLPLAALVLSRIDAGEENPERKLHYDSAFLEEYAPAAKRYVATGYMTVTEAIQSALQLSDNAAANLLLKEVGGPPLLTKYFRSLGDKVSRFDRIEPTLNTNTPGDERDTTTPMSMAQTVSKLIFGDTLTYKSKGQLRRLLIGNQTGDKTIRAGLPDSWVTGDKTGSCANGGRNDVAFFITTAGKKYVLSVYTNAPELQGEERALLIASVAKLARQYVVH
For B1, the Km [7] was 2 µM, the kcat [7] was 4.3 s⁻¹ and the Km [8] was 0.64 µM. For the same molecule, the kcat [8] was 0.03 s⁻¹, the Km [9] was 4 µM and the kcat [9] was 1.2 s⁻¹. The Km [10] was 0.3 µM, the kcat [10] was 1.1 s⁻¹ and the Km [11] was 0.45 µM. The kcat [11] was 0.13 s⁻¹, the Km [12] was 12 µM and the kcat [12] was 0.88 s⁻¹. The Km [13] was 0.3 µM, the kcat [13] was 0.003 s⁻¹ and the kcat [14] was < 0.01 s⁻¹. The kcat [15] was < 0.01 s⁻¹, the Km [16] was 0.36 µM and the kcat [16] was 0.1 s⁻¹. It also gave a Km [17] of 8 µM, a kcat [17] of 1.2 s⁻¹ and a kcat/Km [18] of 2.2e+06 M⁻¹ s⁻¹. It also gave a kcat/Km [19] of 47000 M⁻¹ s⁻¹, a kcat/Km [20] of 300000 M⁻¹ s⁻¹ and a kcat/Km [21] of 300000 M⁻¹ s⁻¹. For the same molecule, the kcat/Km [22] was 290000 M⁻¹ s⁻¹, the kcat/Km [23] was 73000 M⁻¹ s⁻¹ and the kcat/Km [24] was 10000 M⁻¹ s⁻¹. For the same molecule, the kcat/Km [25] was 280000 M⁻¹ s⁻¹ and the kcat/Km [26] was 150000 M⁻¹ s⁻¹.

B2: Beta-lactamase bla(BEL1) (Pseudomonas aeruginosa), Q3SAW3 (protein)
chain: B1 chain with F155L
B2 was tested, and the Km [27] was 280 µM, the kcat [27] was 150 s⁻¹ and the Km [28] was > 700 µM. For the same molecule, the kcat [28] was > 1.5 s⁻¹, the Km [29] was 20 µM and the kcat [29] was 3 s⁻¹. For the same molecule, the Km [30] was 15 µM, the kcat [30] was 2 s⁻¹ and the Km [31] was 250 µM. It also gave a kcat [31] of 30 s⁻¹, a Km [32] of 40 µM and a kcat [32] of 10 s⁻¹. For the same molecule, the Km [33] was 150 µM, the kcat [33] was 1 s⁻¹ and the kcat [34] was < 0.01 s⁻¹. The kcat [35] was < 0.01 s⁻¹, the Km [36] was 100 µM and the kcat [36] was 10 s⁻¹. For the same molecule, the Km [37] was 130 µM, the kcat [37] was 30 s⁻¹ and the kcat/Km [38] was 540000 M⁻¹ s⁻¹. For the same molecule, the kcat/Km [39] was 150000 M⁻¹ s⁻¹, the kcat/Km [40] was 130000 M⁻¹ s⁻¹ and the kcat/Km [41] was 250000 M⁻¹ s⁻¹. The kcat/Km [42] was 250000 M⁻¹ s⁻¹, the kcat/Km [43] was 7000 M⁻¹ s⁻¹ and the kcat/Km [44] was 100000 M⁻¹ s⁻¹. The kcat/Km [45] was 230000 M⁻¹ s⁻¹.
